Measurements from patent publication US20230302148A1, “PHARMACEUTICAL COMPOSITION COMPRISING LONG-ACTING CONJUGATE OF TRIPLE GLUCAGON/GLP-1/GIP RECEPTOR AGONIST” (HANMI PHARM. CO., LTD., priority 2020, published 2023).
Bridges are numbered along the chain shown (N, C = ends). Where no end group is shown, it is not given here. [ ]: non-standard residue; d: D form. The star is where a group is joined. Acetyl(2-(4-imidazolyl)) = O=C(Cc1c[nH]cn1)*; Aib = CC(C)(N)C(=O)O

How the values were obtained:
Test in all cases: cell-based or functional assay
[1] = target: T1, human GIP receptor (human, UniProt P48546 22-466)
T1 sequence (looked up): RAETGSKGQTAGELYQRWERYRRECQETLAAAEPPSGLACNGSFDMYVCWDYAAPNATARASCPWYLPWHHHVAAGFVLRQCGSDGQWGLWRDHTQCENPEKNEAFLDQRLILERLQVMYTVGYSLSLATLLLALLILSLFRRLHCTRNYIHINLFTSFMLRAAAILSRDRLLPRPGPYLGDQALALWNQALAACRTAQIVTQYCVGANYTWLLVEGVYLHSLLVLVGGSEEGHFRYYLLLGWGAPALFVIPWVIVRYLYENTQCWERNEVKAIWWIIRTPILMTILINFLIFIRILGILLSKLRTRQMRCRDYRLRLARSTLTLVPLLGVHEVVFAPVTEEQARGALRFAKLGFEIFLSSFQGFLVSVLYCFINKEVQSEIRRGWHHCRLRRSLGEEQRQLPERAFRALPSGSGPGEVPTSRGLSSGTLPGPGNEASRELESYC

[2] = target: human GCG receptor (human, UniProt P47871 26-477)
Sequence of human GCG receptor (P47871 26-477): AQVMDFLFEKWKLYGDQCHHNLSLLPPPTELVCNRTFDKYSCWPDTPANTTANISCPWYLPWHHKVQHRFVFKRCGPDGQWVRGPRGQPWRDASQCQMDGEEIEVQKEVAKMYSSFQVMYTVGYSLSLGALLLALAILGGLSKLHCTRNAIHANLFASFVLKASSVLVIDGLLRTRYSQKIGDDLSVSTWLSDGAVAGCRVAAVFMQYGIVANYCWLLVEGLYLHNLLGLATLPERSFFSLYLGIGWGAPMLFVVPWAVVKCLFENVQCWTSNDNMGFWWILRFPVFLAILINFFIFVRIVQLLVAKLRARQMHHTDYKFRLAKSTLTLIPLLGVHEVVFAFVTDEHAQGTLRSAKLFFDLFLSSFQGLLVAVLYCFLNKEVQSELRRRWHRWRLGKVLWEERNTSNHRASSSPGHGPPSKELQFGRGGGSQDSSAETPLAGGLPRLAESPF

[3] = target: human GLP-1 receptor (human, UniProt P43220 24-463)

[Acetyl(2-(4-imidazolyl))][Aib]QGTFTSDCSKYLDERAAQDFVQWLLDGGPSSGAPPPS [triple agonist of SEQ ID NO: 63] was tested, and the “In vitro activity relative to native peptide (%) vs. GIP” value [1] was under 0.1%, the “In vitro activity relative to native peptide (%) vs. Glucagon” value [2] was under 0.1% and the “In vitro activity relative to native peptide (%) vs. GLP-1” value [3] was 15.3%.

In the case of [Acetyl(2-(4-imidazolyl))][Aib]QGTFTSDYSIAMDEIACKDFVNWLLNTK (bridge 16-20; not fully specified) [triple agonist of SEQ ID NO: 61], the “In vitro activity relative to native peptide (%) vs. GIP” value [1] is reported as 2.8%, the “In vitro activity relative to native peptide (%) vs. Glucagon” value [2] is reported as under 0.1% and the “In vitro activity relative to native peptide (%) vs. GLP-1” value [3] is reported as 59.8%.

For Y[Aib]QGTFTSDYSKYLDECRAKDFVQWLLDHHPSSGQPPPS (bridge 16-20) [triple agonist of SEQ ID NO: 66], the “In vitro activity relative to native peptide (%) vs. GIP” value [1] was 17.2%, the “In vitro activity relative to native peptide (%) vs. Glucagon” value [2] was 172% and the “In vitro activity relative to native peptide (%) vs. GLP-1” value [3] was 15.8%.

With H[Aib]QGTFTSDYSKYLDEKRQKEFVQWLLNTKC (bridge 16-20) [triple agonist of SEQ ID NO: 58] the “In vitro activity relative to native peptide (%) vs. GIP” value [1] was 0.2%, the “In vitro activity relative to native peptide (%) vs. Glucagon” value [2] was 2.6% and the “In vitro activity relative to native peptide (%) vs. GLP-1” value [3] was 39.1%.

For H[Aib]QGTFTSDYSIAMDEIHQKDFVNWLLNTC (bridge 16-20) [triple agonist of SEQ ID NO: 57], the “In vitro activity relative to native peptide (%) vs. GIP” value [1] was 0.3%, the “In vitro activity relative to native peptide (%) vs. Glucagon” value [2] was under 0.1% and the “In vitro activity relative to native peptide (%) vs. GLP-1” value [3] was 11.7%.

With Y[Aib]QGTFTSDYSKYLDECAAKEFVQWLLDHHPSSGQPPPS (bridge 16-20) [triple agonist of SEQ ID NO: 64] the “In vitro activity relative to native peptide (%) vs. GIP” value [1] was 92.9%, the “In vitro activity relative to native peptide (%) vs. Glucagon” value [2] was 60.1% and the “In vitro activity relative to native peptide (%) vs. GLP-1” value [3] was 64.6%.

With [Acetyl(2-(4-imidazolyl))][Aib]QGTFTSDYSICMDEKHQKDFVNWLLNTK (bridge 16-20; not fully specified) [triple agonist of SEQ ID NO: 59] the “In vitro activity relative to native peptide (%) vs. GIP” value [1] was 4%, the “In vitro activity relative to native peptide (%) vs. Glucagon” value [2] was under 0.1% and the “In vitro activity relative to native peptide (%) vs. GLP-1” value [3] was 40.3%.

With [Acetyl(2-(4-imidazolyl))][Aib]QGTFTSDKSKYLDERAAQDFVQWLLDGGPSSGAPPPS [triple agonist of SEQ ID NO: 62] the “In vitro activity relative to native peptide (%) vs. GIP” value [1] was under 0.1%, the “In vitro activity relative to native peptide (%) vs. Glucagon” value [2] was under 0.1% and the “In vitro activity relative to native peptide (%) vs. GLP-1” value [3] was 5.2%.

In the case of H[Aib]QGTFTSDYSKCLDEKRAKEFVQWLLDHHPSSGQPPPS (bridge 16-20) [triple agonist of SEQ ID NO: 65], the “In vitro activity relative to native peptide (%) vs. GIP” value [1] is reported as 11.6%, the “In vitro activity relative to native peptide (%) vs. Glucagon” value [2] is reported as 25.2% and the “In vitro activity relative to native peptide (%) vs. GLP-1” value [3] is reported as 95.4%.

In the case of H[Aib]QGTFTSDVSKYLDGQAAKEFVAWLLKGC [triple agonist of SEQ ID NO: 7], the “In vitro activity relative to native peptide (%) vs. GIP” value [1] is reported as under 0.1%, the “In vitro activity relative to native peptide (%) vs. Glucagon” value [2] is reported as under 0.1% and the “In vitro activity relative to native peptide (%) vs. GLP-1” value [3] is reported as 13.7%.

For [Acetyl(2-(4-imidazolyl))][Aib]QGTFTSDYSIAMDEKHCKDFVNWLLNTK (bridge 16-20; not fully specified) [triple agonist of SEQ ID NO: 60], the “In vitro activity relative to native peptide (%) vs. GIP” value [1] was 8.2%, the “In vitro activity relative to native peptide (%) vs. Glucagon” value [2] was under 0.1% and the “In vitro activity relative to native peptide (%) vs. GLP-1” value [3] was 106%.
